Laboratory results reported in paper PMC9170038.

Molecular target: MS2 coat protein, dlFG mutant (Escherichia phage MS2, UniProt P03612, del68-81insG)
Test: 4 mM Mg2+; no ligand; RNA-MaP array; 100 mM Tris-HCl pH 7.5, 80 mM KCl, 4 mM MgCl2, 0.1 mg/mL BSA, 1 mM DTT, 0.01 mg/mL yeast tRNA, 0.01% Tween-20; protein 1.5 nM to 3 uM; 37 C (Table S3)
Conditions: chain copies: 2; label: tethered by stalled RNA polymerase

Binder | Kd
Eterna 6049957 (Exclusion 6) (ssRNA) RNA: CUGAGUAGUCAGGAUAUGUGGUACAAAAGUACUGCAGAAGGGAUUACAUGAGGAUCACCCAUGUUUUCUUCAUG | 52 nM
Eterna 7684615 (Exclusion - Tryptophan A) (ssRNA) RNA: AAAAUUGCGGUCGAUAGAACUUUUUGCUUACGAGGACCGGUACGGCCGCCACUCGAGUCAAGUGAUGUUUGAUUUUCUAUUAUUA | > 3000 nM
Eterna 7690543 (Exclusion - Theophylline B) (ssRNA) RNA: AUUUAAUUAACUGAUACCAGACUUUAUGUAUUUAUUAAAACUAGUGAUGUUAGUUUAUCUGUCCCUUGGCAGCAGUUUCUACUUA | > 3000 nM
Eterna 7652494 (Same State - Tryptophan B) (ssRNA) RNA: AGUAGACACGCGGCCGCCACUUGAGGAUCACCCAGGUGGUGUGUACUUGAAAACAAGUGCACAUCAAGGACCGGGCGUGUCUACA | 12.7 nM
Eterna 7687680 (Same State - Theophylline A) (ssRNA) RNA: AUUGAUAUAUAUAUUUGAUUUUUAUGUGAUACCAGACAAGGCAUAGUCCCUUGGCAGCACUUUAUAUUUACGAGUGAUGUUCGUA | > 3000 nM
Eterna 6430991 (Inverted Small Loop Exclusion NG 1) (ssRNA) RNA: CCUCGCUGUUAGAAGGCACCUUCGGCUUUGGCUUUUGGAGUUGGGCGAUGGUGAGGAUAUAACAUGAGGAUCACCCAUGUUCAA | 9.79 nM
Eterna 6108893 (Exclusion NG 1) (ssRNA) RNA: GCGUAAAAUGUAGGAUAUGACACAGGAAACUGGUCAGAAGGACAUGAGGAUCACCCAUGUAAAAUGUUCAAGAAUAACUCAUGC | 123 nM
Eterna 7710140 (Exclusion - Tryptophan A) (ssRNA) RNA: AGCUCGCAAUCCUCAGCGUCAAAGACGCGUCGAGGACCGGUACGGCCGCCACUCGACAAGAGGAUCACCCUUGUCUAAGCGAGCA | 330 nM
Eterna 7765403 (Exclusion - FMN A) (ssRNA) RNA: AGUGAUGUAUGGCGGUUUGUCACUUAAAAUCAGGAUAUAUAAACAAAUAGAAGGGAUGGCGGAGUGAUGUUCCGCCGGCCGCCAU | > 3000 nM
Eterna 7729929 (Exclusion - Tryptophan B) (ssRNA) RNA: GGAUAGGACACGGCCGCCACUAGCUAGGAUACUAGCAACAUUUCCUCAUCUGAGGAUCACCCAGGUAGGACCGGGUGUCCUAUCG | 563 nM
Eterna 7627109 (Same State - Theophylline A) (ssRNA) RNA: CUCCGAGGCUAUACUAUCCGCCUCUGUGAUACCAGAAUACCUAUAUUCCCUUGGCAGCAUCACAUGAGGAUCACCCAUGUGCCAU | 13.2 nM
Eterna 11587 (Sensor for hsa-mir-208a) (ssRNA) RNA: AUUUAACAAGCUUUUUGCUCGUCUUAUAAACAUGAGGAUCACCCAUGUAAUAGCGUGAGAGUAAAUAAUUUAAUAAU | 11.3 nM
Eterna 15621 (Same State 1) (ssRNA) RNA: GCAUCACAUGAGGAUCACCCAUGUCUUCGGAGCGGAGGAUAUGGUCACUGUAAACAGUGGCCAGAAGGCUGGAUGC | 32.4 nM
Eterna 6411926 (Small Loop Same State NG 1) (ssRNA) RNA: GUAUUUAGAUAAGGAUAUAAGUCUAUGACAUGAGGAUCACCCAUGUGUGUCUUAGAAGGUAUUUGGGUAAUAUUGUUACAGUAA | 44.2 nM
Eterna 7726887 (Same State - Arginine A) (ssRNA) RNA: AAUACCUGAGUGAUGUUCAGGGAAUCAGAAGGAGCGUCAAUUAUGACAGGUAGGUCGCUGAAGACAUGUGUGUAUACACAUGUCC | > 3000 nM
Eterna 7637577 (Same State - Tryptophan B) (ssRNA) RNA: GUAGCUAUCGCGGCCGCCACUAAACCGGAAACGGAACAGGAGGAUCACCCUUGUGGCGAAAGCCAUAGGACCGGGCGAUAGCUAC | 483 nM
Eterna 7692300 (Exclusion - FMN B) (ssRNA) RNA: UGGGCUGCCUGAGGAUAUAGAGACGAGUGAUGUUCGUGGAUAAGAGCCAGUGAUGUUGGGUUAUUUCUAGAAGGCGGGCGAACUU | > 3000 nM
Eterna 7720377 (Same State - Arginine B) (ssRNA) RNA: GCCUAGCAGGGAAGGAGCGGCAUAAGCAUAGAUAAUAUGCAGUUAGUGAUGUUAAUACUAUGCCAGGUAGGUCGCCCUGCUAGGC | > 3000 nM
Eterna 7753129 (Same State - Arginine B) (ssRNA) RNA: GGGUUGAACUGAAGGAGCGAGAAAUAGAAAGUAAGAAGAUAAGCUAGUGAUGUUAGAAAUUCUCAGGUAGGUCGCAGUAAGAAUU | > 3000 nM
Eterna 7690487 (Same State - Theophylline B) (ssRNA) RNA: UGUCAUUGGUCUGAUACCAGUUAGACCGAUAGGUCAAAACUGGAGUGAUGUUCCCAAAAUAACCCUUGGCAGCAGACCGAUGACU | > 3000 nM
Eterna 5958224 (Same State NG 3) (ssRNA) RNA: CGAGGCGUACAUGAGGAUCACCCAUGUACCUAACAACAAAGCAAGGAUAUCCUGGCUAUAAUACAGGAGAAGGUGUGGUCCUUA | 135 nM

Binder | Kd
Eterna 7710839 (Same State - Theophylline A) (ssRNA) RNA: UAAUAAAUAAAUCCAAGGUGAAGGUCAGAUACCAGCCAGAUAACUGGCCCUUGGCAGCUGAAUAAGCUUGAGGAUCACCCAAGUA | 36.1 nM
Eterna 7712973 (Exclusion - Theophylline A) (ssRNA) RNA: AGACCUCAGUGAUGUUGAGGUAACACUGAUACCAGCGACUUAAUUCGCCCUUGGCAGCAGUCCACCGAGGUAUCUGAUUAGGUCA | > 3000 nM
Eterna 9759 (Exclusion 4) (ssRNA) RNA: GUCGAGUGAGGAUAUGGUGAGUAGUGCCUGAGCGCUGCUCACCAGAAGGCACAUGAGGAUCACCCAUGUAUAGC | 16.7 nM
Eterna 6079023 (Exclusion 4) (ssRNA) RNA: UUCACGUCAGGAUAUCCAUAUUUCCGAAAUAACGGUACUUUGGAGAAGGGACAUGAGGAUCACCCAUGUCCUCG | 17.9 nM
Eterna 6420697 (Small Loop Exclusion NG 3) (ssRNA) RNA: AUCGUUGACUGGACGAGAAUAGGGCAGGAUAUACAUGAGGAUCACCCAUGUGAAGCACGAAAGAGGUAGAAGGGCCCACGUCAU | 16.1 nM
Eterna 6430949 (Inverted Small Loop Exclusion NG 1) (ssRNA) RNA: GGGACCUACGAGAAGGGCUACAUGAGGAUCACCCAUGUAAAUCUUCGGGUGGCAGGAUAUCGGCGGCUACAGGAGGGCCAGGUC | 8.57 nM
Eterna 6084857 (Exclusion 6) (ssRNA) RNA: UCAAAUACUGAGGAUAUAACGACUGAAUCCGCGUUAGAAGGUAGUACAUGAGGAUCACCCAUGUCAACCAGAGG | 17.2 nM
Eterna 6424838 (Exclusion NG 2) (ssRNA) RNA: GCCGGUUCCCUAGGAUAUGUACAUGAGGAUCACCCAUGUGCCUCUAGAGCCGGAACAGGGCAUGUACAGAAGGAGGGUCGACCC | 7.13 nM
Eterna 6457182 (Inverted Small Loop Same State NG 1) (ssRNA) RNA: CGUCUAUGCAAGAAGGCAUGAAACAUGAGGAUCACCCAUGUCAAAGACAUGAGGAUAUUGCAUAGACGAAAAGUGCGAAAGCAC | 4.44 nM
Eterna 7729660 (Same State - Arginine B) (ssRNA) RNA: ACGAAGGAUGGAAGGAGCGCUCGUCAGUCCUGCGAGUGAUGUUCGUGGGUAAAUAGUCGCGAGCAGGUAGGUCGCCAUCUUGAGC | > 3000 nM
Eterna 6429368 (Inverted Exclusion NG 2) (ssRNA) RNA: AUGUCUUAGUAGAAGGGACAUCGGCUGGUAAGCAUCAUCUCCUUCUCACAUGAGGAUCACCCAUGUCAGGAUAUACUAAGAUAC | 12.8 nM
Eterna 7716236 (Same State - Tryptophan B) (ssRNA) RNA: GCGCGGCAGGCGGCCGCCACUCUGACGAGCCACAGUGAUGUUGUGGUCGGAGAAACGUCUUCAUAGAGGACCGGGUUUGUUGUUC | > 3000 nM
Eterna 6389671 (Inverted Exclusion NG 2) (ssRNA) RNA: ACUUGUAAGUAGAAGGUAGUCAUUAUAUUAAUCAUGUAAACAUGAGGAUCACCCAUGUAGAGUACUAAGGAUAUACAUCGAUAG | 15.2 nM
Eterna 7690461 (Exclusion - Theophylline A) (ssRNA) RNA: UAAUUUAUGUCUUUAAUAUAAUAAUCAGAUACCAGUGAUUUAUGACACCCUUGGCAGCUGUAUAGAGUGAUGUUCUUAUACAUAA | > 3000 nM
Eterna 6443759 (Same State NG 2) (ssRNA) RNA: AUUAUAAUUGAAGGAUAUCUAUAUCCAACAUGAGGAUCACCCAUGUUGAGGAUCACCCAUGUAAAGGAGAAGGUUAAUUAUAAU | 101 nM
Eterna 7708077 (Same State - FMN A) (ssRNA) RNA: UUUUACGAGUGAUGUUCGUAAUGUAAUAGUUAGGAUAUCGUUUUUUCGAGAAGGAACUUCGAAGUGAUACGAAAGUAUCGCUUCG | > 3000 nM
Eterna 7730362 (Exclusion - Arginine B) (ssRNA) RNA: GGACUAACCAGAAGGAGCGGCGCGCAGAAACUGCUAAUUCCUCCGCACGAGGAUCACCCGUGUCAGGUAGGUCGCUGGUUAGUCG | 10 nM
Eterna 7691153 (Same State - Arginine B) (ssRNA) RNA: AAUGCAUAGUGAAGGAGCGCGAUUUGCAGUGAUGUUGCAAAUUUAAACAAUCUUAUCUUUUCGCAGGUAGGUCGCACUAUGCAUA | > 3000 nM
Eterna 6056927 (Brourd's mod of Exclusion 4) (ssRNA) RNA: GGUCCUUCUGUUAGGAUAUGCUAUGGGCUUCCGCAGUAGAAGGAACAUGAGGAUCACCCAUGUCCGAUGCCGUA | 67.5 nM
Eterna 7682639 (Same State - Theophylline A) (ssRNA) RNA: GAAGGUCAAAGACCUUCGUGCACAUCUGAUACCAGUCGCGAAAGCGACCCUUGGCAGCAGGGCAGUGAUGUUGCCAGUGCACAAA | > 3000 nM
Eterna 6456627 (Same State NG 3) (ssRNA) RNA: GCGCCUCAGAACAUGAGGAUCACCCAUGUGCUGCGGGCGCCGUAGGAUAUGAUGGUACGCUACCAUCAGAAGGAUGAUGGUACC | 4.99 nM
